# Article PMC3053351
# Legend:
# Assay in all cases: flow cytometry on cells
# [1] = biological target: Mamu-KIR3DL05*003 (rhesus macaque)
# [2] = biological target: Mamu-KIR3DL05*005 (rhesus macaque)
# [3] = biological target: Mamu-KIR3DL05*008 (rhesus macaque)
# [4] = biological target: Mamu-KIR3DL05*010 (rhesus macaque)
# [5] = biological target: Mamu-KIR3DL05*001 (rhesus macaque)
# [6] = biological target: Mamu-KIR3DL05*004 (rhesus macaque)
Substance,MFI of tetramer staining divided by MFI of HA staining [1],MFI of tetramer staining divided by MFI of HA staining [2],MFI of tetramer staining divided by MFI of HA staining [3],MFI of tetramer staining divided by MFI of HA staining [4],MFI of tetramer staining divided by MFI of HA staining [5],MFI of tetramer staining divided by MFI of HA staining [6]
Mamu-A1*00201 tetramer folded with SIV Env_(788-795) RY8 (from UniProt P61769 21-119) (peptide-MHC),0.06,0.03,0.07,0.07,–,–
Mamu-A1*00201 tetramer folded with SIV Gag_(71-79) GY9 (from UniProt P61769 21-119) (peptide-MHC),1.57,0.55,1.49,1.55,0.02,1.99
Mamu-A1*00201 tetramer folded with SIV Nef_(159-167) YY9 (from UniProt P61769 21-119) (peptide-MHC),0.03,0.01,0.03,0.03,–,0.13
